Assay results as given in paper PMC9352680, “A comprehensive thermodynamic model for RNA binding by the Saccharomyces cerevisiae Pumilio protein PUF4”.
Changes are numbered by the printed parent chain. Numbers in names are those of the source.

B1: Ia_S1_P5E.1_K5.1_C5.1_H5.1_[G2A]_A5.1_F5.1_T5.1 (ssRNA)
RNA: UCUCUUUAUAUUAUUAUCUCUU
B2: Id_ii_S2_P4E.3_K4.2_C4.2_[C-2G]_[T-1C]_H4.2_A4.1_F4.1_T4.2_[G10T]_[T11G] (ssRNA)
RNA: UUUGAUUAAUAUGAUAUCGUUCUUUCUGCUAUAUAUUAUGUUCUUUCUCGAUAUCAUAUUAAUCUUU
B3: Id_ii_S2_P4E.3_K4.2_C4.2_[C-2A]_[T-1A]_H4.2_A4.1_F4.1_T4.2_[G10C]_[T11C] (ssRNA)
RNA: B2 RNA with G28A, C29A, U39C, G40C
B4: Id_ii_S2_P4E.3_K4.2_C4.2_[C-2T]_[T-1C]_H4.2_A4.1_F4.1_T4.2_[G10C]_[T11A] (ssRNA)
RNA: B2 RNA with G28U, U39C, G40A
B5: Id_ii_S2_P4E.3_K4.2_C4.2_[C-2G]_[T-1C]_H4.2_A4.1_F4.1_T4.2_[G10A] (ssRNA)
RNA: B2 RNA with U39A, G40U
B6: Id_ii_S2_P4E.3_K4.2_C4.2_[C-2G]_H4.2_A4.1_F4.1_T4.2_[G10T]_[T11G] (ssRNA)
RNA: B2 RNA with C29U
B7: Id_ii_S2_P4E.3_K4.2_C4.2_[C-2T]_H4.2_A4.1_F4.1_T4.2_[G10C] (ssRNA)
RNA: B2 RNA with G28U, C29U, U39C, G40U
B8: Id_ii_S2_P4E.3_K4.2_C4.2_[C-2A]_[T-1C]_H4.2_A4.1_F4.1_T4.2_[G10C]_[T11C] (ssRNA)
RNA: B2 RNA with G28A, U39C, G40C
B9: Id_ii_S2_P4E.3_K4.2_C4.2_[C-2T]_[T-1G]_H4.2_A4.1_F4.1_T4.2_[G10A]_[T11A] (ssRNA)
RNA: B2 RNA with G28U, C29G, U39A, G40A
B10: Id_ii_S2_P4E.3_K4.2_C4.2_[C-2T]_H4.2_A4.1_F4.1_T4.2_[G10A]_[T11G] (ssRNA)
RNA: B2 RNA with G28U, C29U, U39A
B11: Id_ii_S2_P4E.3_K4.2_C4.2_[C-2A]_[T-1C]_H4.2_A4.1_F4.1_T4.2_[G10C]_[T11G] (ssRNA)
RNA: B2 RNA with G28A, U39C
B12: Id_ii_S2_P4E.3_K4.2_C4.2_[C-2T]_[T-1A]_H4.2_A4.1_F4.1_T4.2_[G10C]_[T11A] (ssRNA)
RNA: B2 RNA with G28U, C29A, U39C, G40A
B13: Id_ii_S2_P4E.3_K4.2_C4.2_[C-2T]_[T-1A]_H4.2_A4.1_F4.1_T4.2_[G10C]_[T11C] (ssRNA)
RNA: B2 RNA with G28U, C29A, U39C, G40C
B14: Id_ii_S2_P4E.3_K4.2_C4.2_[C-2T]_H4.2_A4.1_F4.1_T4.2_[G10T]_[T11A] (ssRNA)
RNA: B2 RNA with G28U, C29U, G40A
B15: Id_ii_S2_P4E.3_K4.2_C4.2_[C-2T]_[T-1C]_H4.2_A4.1_F4.1_T4.2_[G10T]_[T11C] (ssRNA)
RNA: B2 RNA with G28U, G40C
B16: Id_ii_S2_P4E.3_K4.2_C4.2_[C-2A]_[T-1C]_H4.2_A4.1_F4.1_T4.2_[G10A]_[T11C] (ssRNA)
RNA: B2 RNA with G28A, U39A, G40C
B17: Id_ii_S2_P4E.3_K4.2_C4.2_[C-2T]_[T-1C]_H4.2_A4.1_F4.1_T4.2_[G10C]_[T11C] (ssRNA)
RNA: B2 RNA with G28U, U39C, G40C
B18: Id_ii_S2_P4E.3_K4.2_C4.2_[C-2T]_[T-1G]_H4.2_A4.1_F4.1_T4.2_[G10A]_[T11C] (ssRNA)
RNA: B2 RNA with G28U, C29G, U39A, G40C
B19: Id_ii_S2_P4E.3_K4.2_C4.2_[C-2A]_[T-1C]_H4.2_A4.1_F4.1_T4.2_[G10T]_[T11G] (ssRNA)
RNA: B2 RNA with G28A
B20: Id_ii_S2_P4E.3_K4.2_C4.2_[C-2G]_H4.2_A4.1_F4.1_T4.2_[G10C] (ssRNA)
RNA: B2 RNA with C29U, U39C, G40U
B21: Id_ii_S2_P4E.3_K4.2_C4.2_[C-2T]_H4.2_A4.1_F4.1_T4.2_[G10C]_[T11A] (ssRNA)
RNA: B2 RNA with G28U, C29U, U39C, G40A
B22: Id_ii_S2_P4E.3_K4.2_C4.2_[C-2T]_H4.2_A4.1_F4.1_T4.2_[G10A] (ssRNA)
RNA: B2 RNA with G28U, C29U, U39A, G40U
B23: Id_ii_S2_P4E.3_K4.2_C4.2_[C-2A]_[T-1C]_H4.2_A4.1_F4.1_T4.2_[G10C]_[T11A] (ssRNA)
RNA: B2 RNA with G28A, U39C, G40A
B24: Id_ii_S2_P4E.3_K4.2_C4.2_[C-2T]_[T-1G]_H4.2_A4.1_F4.1_T4.2 (ssRNA)
RNA: B2 RNA with G28U, C29G, U39G, G40U
B25: Id_ii_S2_P4E.3_K4.2_C4.2_[C-2A]_[T-1C]_H4.2_A4.1_F4.1_T4.2_[G10T]_[T11C] (ssRNA)
RNA: B2 RNA with G28A, G40C
B26: Id_ii_S2_P4E.3_K4.2_C4.2_[C-2T]_[T-1G]_H4.2_A4.1_F4.1_T4.2_[G10T]_[T11G] (ssRNA)
RNA: B2 RNA with G28U, C29G
B27: Id_ii_S2_P4E.3_K4.2_C4.2_[C-2A]_[T-1G]_H4.2_A4.1_F4.1_T4.2_[G10T]_[T11C] (ssRNA)
RNA: B2 RNA with G28A, C29G, G40C
B28: Id_ii_S2_P4E.3_K4.2_C4.2_[C-2T]_[T-1C]_H4.2_A4.1_F4.1_T4.2_[G10A]_[T11A] (ssRNA)
RNA: B2 RNA with G28U, U39A, G40A
B29: Id_ii_S2_P4E.3_K4.2_C4.2_[C-2A]_[T-1G]_H4.2_A4.1_F4.1_T4.2_[G10A]_[T11A] (ssRNA)
RNA: B2 RNA with G28A, C29G, U39A, G40A

Each binder was assayed against T1, PUF4 RNA-binding domain (Saccharomyces cerevisiae, UniProt P25339 537-888) (assay: Mg; RNA-MaP; 20 mM Na-HEPES pH 7.4, 30 mM KOAc, 0.75 mM MgCl2, 0.1% Tween-20, 5% glycerol, 0.1 mg/mL BSA, 2 mM DTT; 25 C; 0.0125-409.6 nM protein). Details: tags: N-His6-TEV cleaved; C-SNAP kept, Cy3B-labelled; label: tethered on chip by stalled RNA polymerase.
T1 sequence: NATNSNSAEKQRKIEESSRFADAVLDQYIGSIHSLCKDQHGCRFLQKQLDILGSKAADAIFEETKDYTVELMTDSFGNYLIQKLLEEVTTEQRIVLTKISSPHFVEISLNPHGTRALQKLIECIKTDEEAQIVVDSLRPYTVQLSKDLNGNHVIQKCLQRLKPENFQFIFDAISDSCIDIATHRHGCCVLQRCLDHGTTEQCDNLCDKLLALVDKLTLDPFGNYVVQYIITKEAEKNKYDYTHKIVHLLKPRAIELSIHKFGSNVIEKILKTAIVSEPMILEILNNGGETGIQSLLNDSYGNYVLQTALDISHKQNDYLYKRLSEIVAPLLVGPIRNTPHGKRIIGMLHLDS

Question: B1 was tested. Which Kd did it give?
Answer: 367 nM

Question: Which Kd does the source give for B2 here?
Answer: 29.1 nM

Question: With B3 as the binder, how does the Kd read?
Answer: 56.4 nM

Question: Which Kd does the source give for B4 here?
Answer: 11.5 nM

Question: With B5 as the binder, how does the Kd read?
Answer: 16.7 nM

Question: How did the Kd turn out when B6 was run?
Answer: 11.2 nM

Question: How did the Kd turn out when B7 was run?
Answer: 3.66 nM

Question: How did the Kd turn out when B8 was run?
Answer: 8.87 nM

Question: For B9, which Kd is on record?
Answer: 2.31 nM

Question: Which Kd does the source give for B10 here?
Answer: 700 nM

Question: For B11, which Kd is on record?
Answer: 159 nM

Question: For B12, which Kd is on record?
Answer: 17.5 nM

Question: How did the Kd turn out when B13 was run?
Answer: 14.9 nM

Question: With B14 as the binder, how does the Kd read?
Answer: 23.8 nM

Question: Which Kd does the source give for B15 here?
Answer: 7 nM

Question: B16 was tested. Which Kd did it give?
Answer: 13.3 nM

Question: How did the Kd turn out when B17 was run?
Answer: 8.5 nM

Question: B18 was tested. Which Kd did it give?
Answer: 4.44 nM

Question: How did the Kd turn out when B19 was run?
Answer: 135 nM

Question: How did the Kd turn out when B20 was run?
Answer: 26.9 nM

Question: B21 was tested. Which Kd did it give?
Answer: 8.41 nM

Question: For B22, which Kd is on record?
Answer: 17.3 nM

Question: Which Kd does the source give for B23 here?
Answer: 16.8 nM

Question: For B24, which Kd is on record?
Answer: 1.86 nM

Question: Which Kd does the source give for B25 here?
Answer: 10.6 nM

Question: How did the Kd turn out when B26 was run?
Answer: 2.66 nM

Question: With B27 as the binder, how does the Kd read?
Answer: 284 nM

Question: B28 was tested. Which Kd did it give?
Answer: 18.5 nM

Question: Which Kd does the source give for B29 here?
Answer: 135 nM
